Assay results as given in patent US20240368230, “CELL-PENETRATING PEPTIDES COMPRISING MULTIPLE 5-MER ALPHA-HELIX FRAGMENTS AND USES […]” (ArtProBio Co., Ltd., published 2024).

Target: Tat peptide (47-57) (Human immunodeficiency virus 1)
Experiment: EMSA; non-cognate RNA; higher affinity than CPP11; 10 mM potassium phosphate pH 7.5, 100 mM NaCl
Settings: protein: synthetic; tags: chemically synthesized peptide; stem-loop

Binder: GGACCUGGUAUGGGCGCAGCGCAAGCUGACGGUACAGGCCAGGUCC (ssRNA) [wild-type RRE IIB RNA]
- binding result: binds
